These results are taken from PMC10542344 (Communications Biology, 2023).

Experiment [1] has as its target T1, human IL-17A (recombinant) (human, UniProt Q16552). Nature of the experiment: cell-based or functional assay.
A further experiment has as its target T2, insulin (Homo sapiens (assumed), UniProt P01308).
T2 construct: insulin B chain; insulin A chain
The experiment can be described thus: ELISA; polyspecificity assay; plates coated with 5 μg/ml antigen, blocked with PBS 0.5% BSA; 100 nM antibody 1 h at RT; anti-human Fc-HRP. The settings on record: both partners purified.

Another experiment concerns the target T3, human IL-2 (Homo sapiens, UniProt P60568).
T3 construct: human interleukin-2; also called hIL-2
Described as above. The settings on record: both partners purified.

Another experiment addresses T4, hTNFR2 (Homo sapiens, UniProt P20333).
T4 construct: human TNF receptor 2
The description is as above. The settings on record: both partners purified.

In another experiment the target is T5, BSA (Bos taurus, UniProt P02769).
T5 construct: bovine serum albumin, printed only as BSA; a BSA coating is not described
Described as above. The settings on record: both partners purified.

Experiment [2] deals with T1, human IL-17A (recombinant). The experiment can be described thus: SPR; Biacore T100, CM5 chip; tested antibody captured on anti-human IgG to about 500 RU; IL-17A analyte in PBS 0.05% tween, two- or three-fold dilutions, multi-cycle kinetics. As to conditions: both partners purified.
Experiment [3] deals with T6, biotinylated human IL-17A (Homo sapiens, UniProt Q16552, biotin (site not stated)).
T6 construct: human interleukin-17A; also called hIL-17A; biotinylated IL-17A
Nature of the experiment: flow cytometry on cells; scFv displayed on yeast EBY-100; incubated with soluble antigen (biotinylated human IL-17A in PBS 0.1% BSA, 1 h), labelled with anti-Myc-FITC (expression) and streptavidin-APC (binding). The settings on record: one partner purified.

The target in experiment [4] is T7, IL-1β (used in the yeast display FACS analysis) (Homo sapiens, UniProt P01584).
T7 construct: interleukin-1 beta; Species is said only of the IL-1β of the crystal (human)
The description is as above. As to conditions: one partner purified.

Another experiment deals with T8, recombinant human IL-1β (Homo sapiens).
T8 construct: human interleukin-1 beta; also called IL-1b
Nature of the experiment: crystal structure; AAL160 Fab with a 1.5-fold excess of recombinant human IL-1β, complex purified by SEC; 3.30 Å. As to conditions: both partners purified.

T3 sequence (P60568 21-153): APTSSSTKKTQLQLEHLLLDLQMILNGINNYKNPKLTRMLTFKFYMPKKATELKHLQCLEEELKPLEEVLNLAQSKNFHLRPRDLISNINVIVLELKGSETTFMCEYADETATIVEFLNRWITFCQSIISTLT
T6 sequence (Q16552 24-155): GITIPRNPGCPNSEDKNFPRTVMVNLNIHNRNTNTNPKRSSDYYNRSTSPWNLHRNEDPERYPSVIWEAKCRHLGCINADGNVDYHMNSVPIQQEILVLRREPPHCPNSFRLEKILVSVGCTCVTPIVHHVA
T1 sequence (Q16552 24-155): as above
T5 sequence (P02769 25-607): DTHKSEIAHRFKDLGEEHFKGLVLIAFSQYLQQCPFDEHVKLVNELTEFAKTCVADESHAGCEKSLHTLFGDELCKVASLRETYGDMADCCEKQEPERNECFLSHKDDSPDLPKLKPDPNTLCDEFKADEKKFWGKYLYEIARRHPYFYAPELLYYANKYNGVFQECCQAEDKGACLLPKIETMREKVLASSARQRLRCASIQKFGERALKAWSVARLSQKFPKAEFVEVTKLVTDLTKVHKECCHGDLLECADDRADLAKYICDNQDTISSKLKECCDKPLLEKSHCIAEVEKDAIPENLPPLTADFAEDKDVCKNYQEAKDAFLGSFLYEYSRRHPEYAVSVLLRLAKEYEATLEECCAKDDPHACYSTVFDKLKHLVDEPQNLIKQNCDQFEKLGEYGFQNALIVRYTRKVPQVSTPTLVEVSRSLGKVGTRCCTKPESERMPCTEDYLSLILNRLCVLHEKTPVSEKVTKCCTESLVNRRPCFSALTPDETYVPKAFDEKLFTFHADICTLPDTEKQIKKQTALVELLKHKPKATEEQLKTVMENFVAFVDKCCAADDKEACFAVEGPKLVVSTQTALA
T2 sequence (P01308 whole entry, looked up): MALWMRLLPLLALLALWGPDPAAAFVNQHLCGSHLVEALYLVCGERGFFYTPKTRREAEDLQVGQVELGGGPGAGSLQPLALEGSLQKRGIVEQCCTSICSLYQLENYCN
T4 sequence (P20333 23-461): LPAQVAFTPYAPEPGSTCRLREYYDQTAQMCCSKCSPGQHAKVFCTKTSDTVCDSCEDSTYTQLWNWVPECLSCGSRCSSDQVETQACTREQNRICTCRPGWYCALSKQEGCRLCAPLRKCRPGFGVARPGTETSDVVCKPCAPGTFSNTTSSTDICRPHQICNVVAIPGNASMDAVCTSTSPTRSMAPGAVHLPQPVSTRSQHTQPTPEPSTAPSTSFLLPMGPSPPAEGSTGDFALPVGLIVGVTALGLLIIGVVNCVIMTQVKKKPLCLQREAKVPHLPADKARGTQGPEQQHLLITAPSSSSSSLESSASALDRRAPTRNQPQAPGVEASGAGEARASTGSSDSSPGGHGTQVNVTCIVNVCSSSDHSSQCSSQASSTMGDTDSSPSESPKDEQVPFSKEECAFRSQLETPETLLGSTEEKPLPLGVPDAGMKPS

B1: BDG11.001 (clone 11.4C_11.001 as soluble human IgG1) (antibody, V domains shown)
VH: EVQLVQSGAEVKKPGESLKISCKGSGYSFTSYWIGWVRQMPGKGLEWMGIIYPSDSDTRYSPSFQGQVTISADKSISTAYLQWSSLKASDTAMYYCARYPNYGAFDIWGQGTMVTVSS
VL: EIVLTQSPATLSLSPGERATLSCRASQSVWSYLAWYQQKPGQAPRLLIYDASNRATGIPARFSGSGSGTDFTLTISSLEPEDFAVYYCQQYFYWGWPFGQGTKLEIK
notes: as the VH of m6 (clone 11.4C_11.001); the same heavy chain stands in 11.003 (PDB 7Z2M); changes are against the VH of AAL160; human IgG1 heavy-chain constant region, from the plasmid pSF-CMV-HuIgG1_HC; as the VL of m6 (clone 11.4C_11.001); has W30, Y93, W94; the light chain of 11.003 in PDB 7Z2M differs from it at position 30 (Phe for Trp); as in the light chain of 11.003 in PDB 7Z2M; IgG1; also …
For the molecule B1, in experiment [1], the “IC50 of inhibition of IL-17A dependent IL-6 secretion by BJ fibroblasts (1 nM IL-17A; blocks IL-17A binding to IL-17RA on the cells)” value was 4.8 nM. Also, the binding result in the experiment with insulin, with human IL-2, with hTNFR2 and with BSA was “no binding (tested: 100 nM antibody)” throughout. Further, in [2], the Kd is 0.75 nM.

B2: clone 11.4_C12 scFv displayed on yeast (scFv, V domains shown)
VH: EVQLVQSGAEVKKPGESLKISCKGSGYSFTSYWIGWVRQMPGKGLEWMGIIYPSDSDTRYSPSFQGQVTISADKSISTAYLQWSSLKASDTAMYYCARYPNYGAFDIWGQGTMVTVSS
VL: EIVLTQSPATLSLSPGERATLSCRASQSVWSYLAWYQQKPGQAPRLLIYDASNRATGIPARFSGSGSGTDFTLTISSLEPEDFAVYYCQQYFYWSWPFGQGTKLEIK
notes: as the VH of m1 (AAL160) with changes in CDR H3; three repeats of the G4S linker between VH and VL; as the VL of m1 (AAL160) with changes; has W30, Y93 and W94 (light-chain numbering); also called 114_R5_C12; source: yeast surface display, EBY-100, induced at 37 to 40 °C
On to B2, for which the binding result in [3] is recorded as “binds”.

B3: BDG11.007 (human IgG1) (antibody, V domains shown)
VH: EVQLVQSGAEVKKPGESLKISCKGSGYSFTSYWIGWVRQMPGKGLEWMGIIYPSDSDTRYSPSFQGQVTISADKSISTAYLQWSSLKASDTAMYYCARYPNYGAFDIWGQGTMVTVSS
VL: EIVLTQSPATLSLSPGERATLSCRASQSVWSYLAWYQQKPGQAPRLLIYDASNRATGIPARFSGSGSGTDFTLTISSLEPEDFAVYYCQQYFNWGWPFGQGTKLEIK
notes: as the VH of m7 (BDG11.001); human IgG1 heavy-chain constant region, from the plasmid pSF-CMV-HuIgG1_HC; as the VL of m7 (BDG11.001) with one substitution; light-chain numbering; as in the light chain of 11.003 in PDB 7Z2M; IgG1; single mutant of BDG11.001; source: Expi-CHO, transfected, purified from the supernatant (protein A beads); copies: 2 + 2
On to B3, for which, in experiment [1], the “IC50 of inhibition of IL-17A dependent IL-6 secretion by BJ fibroblasts (1 nM IL-17A; blocks IL-17A binding to IL-17RA on the cells)” value was 286 nM. The binding result in the experiment with insulin, with human IL-2, with hTNFR2 and with BSA was “no binding (tested: 100 nM antibody)” in each case.

B4: clone 11.4_C13 scFv displayed on yeast (scFv, V domains shown)
VH: EVQLVQSGAEVKKPGESLKISCKGSGYSFTSYWIGWVRQMPGKGLEWMGIIYPSDSDTRYSPSFQGQVTISADKSISTAYLQWSSLKASDTAMYYCARYTNYEAFDIWGQGTMVTVSS
VL: EIVLTQSPATLSLSPGERATLSCRASQSVWSYLAWYQQKPGQAPRLLIYDASNRATGIPARFSGSGSGTDFTLTISSLEPEDFAVYYCQQSFYWPFPFGQGTKLEIK
notes: as the VH of m1 (AAL160) with changes; has no T100P; three repeats of the G4S linker between VH and VL; as the VL of m1 (AAL160) with changes; source: yeast surface display, EBY-100, induced with galactose
On to B4, for which the binding result in experiment [3] is reported as “binds”.

B5: clone 11.1_C3 scFv displayed on yeast (scFv, V domains shown)
VH: EVQLVQSGAEVKKPGESLKISCKGSGYSFTSYWIGWVRQMPGKGLEWMGIIYPSDSDTRYSPSFQGQVTISADKSISTAYLQWSSLKASDTAMYYCARYTNYGNFDIWGQGTMVTVSS
VL: EIVLTQSPATLSLSPGERATLSCRASQSVWSYLAWYQQKPGQAPRLLIYDASNRATGIPARFSGSGSGTDFTLTISSLEPEDFAVYYCQQGFYWPWPFGQGTKLEIK
notes: as the VH of m1 (AAL160) with changes in CDR H3; numbers count on the scFv; three repeats of the G4S linker between VH and VL; as the VL of m1 (AAL160) with changes in CDR L1 and L3; First-generation clone from library A_11.1; nine mutations against AAL160, eight in H3 and L3 and one in L1; source: yeast surface display, EBY-100, induced with galactose
With B5, the binding result was “binds” in experiment [3] and “no binding” in experiment [4].

B6: BDG11.006 (human IgG1) (antibody, V domains shown)
VH: EVQLVQSGAEVKKPGESLKISCKGSGYSFTSYWIGWVRQMPGKGLEWMGIIYPSDSDTRYSPSFQGQVTISADKSISTAYLQWSSLKASDTAMYYCARYPNYGAFDIWGQGTMVTVSS
VL: EIVLTQSPATLSLSPGERATLSCRASQSVWSYLAWYQQKPGQAPRLLIYDASNRATGIPARFSGSGSGTDFTLTISSLEPEDFAVYYCQQYFYNGWPFGQGTKLEIK
notes: as for B3
Regarding B6, the “IC50 of inhibition of IL-17A dependent IL-6 secretion by BJ fibroblasts (1 nM IL-17A; blocks IL-17A binding to IL-17RA on the cells)” value in experiment [1] is 50.5 nM. In addition, the binding result in the experiment with insulin, with human IL-2, in the experiment with hTNFR2 and with BSA was “no binding (tested: 100 nM antibody)” throughout.

B7: BDG11.003 (human IgG1) (antibody, V domains shown)
VH: EVQLVQSGAEVKKPGESLKISCKGSGYSFTSYWIGWVRQMPGKGLEWMGIIYPSDSDTRYSPSFQGQVTISADKSISTAYLQWSSLKASDTAMYYCARYPNYGAFDIWGQGTMVTVSS
VL: EIVLTQSPATLSLSPGERATLSCRASQSVFSYLAWYQQKPGQAPRLLIYDASNRATGIPARFSGSGSGTDFTLTISSLEPEDFAVYYCQQYFYWGWPFGQGTKLEIK
notes: as the VH of m7 (BDG11.001); human IgG1 heavy-chain constant region, from the plasmid pSF-CMV-HuIgG1_HC; as the VL of m7 (BDG11.001) with W30F; that 11.003 is the W30F variant follows from the sentence that 11.003 has Phe30 in L1 where AAL160 has Ser; light-chain numbering; IgG1; seven mutations against AAL160; source: Expi-CHO, transfected, purified from the supernatant (protein A beads); …
As for B7, in [1], the “IC50 of inhibition of IL-17A dependent IL-6 secretion by BJ fibroblasts (1 nM IL-17A; blocks IL-17A binding to IL-17RA on the cells)” value is 33.9 nM. Moreover, the binding result with insulin, with human IL-2, in the experiment with hTNFR2 and in the experiment with BSA was “no binding (tested: 100 nM antibody)” each time.

B8: AAL160 Fab (Fab, V domains shown)
VH: EVQLVQSGAEVKKPGESLKISCKGSGYSFTSYWIGWVRQMPGKGLEWMGIIYPSDSDTRYSPSFQGQVTISADKSISTAYLQWSSLKASDTAMYYCARYTNWDAFDIWGQGTMVTVSS
VL: EIVLTQSPATLSLSPGERATLSCRASQSVSSYLAWYQQKPGQAPRLLIYDASNRATGIPARFSGSGSGTDFTLTISSLEPEDFAVYYCQQRSNWMFPFGQGTKLEIK
notes: Fab heavy-chain fragment of AAL160 after papain digestion; light chain of AAL160; also called parent AAL160 Fab; source: papain digestion of AAL160 at 37 °C, Fab purified over Protein A Sepharose Fast Flow
With B8, the binding result with recombinant human IL-1β is reported as “binds”.

B9: AAL160 scFv displayed on yeast (scFv, V domains shown)
VH: EVQLVQSGAEVKKPGESLKISCKGSGYSFTSYWIGWVRQMPGKGLEWMGIIYPSDSDTRYSPSFQGQVTISADKSISTAYLQWSSLKASDTAMYYCARYTNWDAFDIWGQGTMVTVSS
VL: EIVLTQSPATLSLSPGERATLSCRASQSVSSYLAWYQQKPGQAPRLLIYDASNRATGIPARFSGSGSGTDFTLTISSLEPEDFAVYYCQQRSNWMFPFGQGTKLEIK
notes: VH of AAL160; also held by the deposited AAL160 Fab structures; three repeats of the G4S linker between VH and VL; VL of AAL160; scFv in heavy to light-chain orientation; VH 99% identical to IGHV5-51*01, VL 100% identical to IGKV3-11*01; also called template antibody; anti-IL-1β antibody; source: yeast surface display, EBY-100, induced with galactose
With B9, the figures for the binding result in [3] and in experiment [4] were “no binding” and “binds”, respectively.

B10: clone 11.1_C5 scFv displayed on yeast (scFv, V domains shown)
VH: EVQLVQSGAEVKKPGESLKISCKGSGYSFTSYWIGWVRQMPGKGLEWMGIIYPSDSDTRYSPSFQGQVTISADKSISTAYLQWSSLKASDTAMYYCARYTNYGNFDIWGQGTMVTVSS
VL: EIVLTQSPATLSLSPGERATLSCRASQSVWWYLAWYQQKPGQAPRLLIYDASNRATGIPARFSGSGSGTDFTLTISSLEPEDFAVYYCQQGFYWPWPFGQGTKLEIK
notes: as the VH of m1 (AAL160) with changes; three repeats of the G4S linker between VH and VL; as the VL of m1 (AAL160) with changes; First-generation clone from library A_11.1; source: yeast surface display, EBY-100, induced with galactose
For B10, the binding result in experiment [3] was “binds”; in experiment [4], “no binding”.

B11: BDG11.004 (human IgG1) (antibody, V domains shown)
VH: EVQLVQSGAEVKKPGESLKISCKGSGYSFTSYWIGWVRQMPGKGLEWMGIIYPSDSDTRYSPSFQGQVTISADKSISTAYLQWSSLKASDTAMYYCARYPNYGAFDIWGQGTMVTVSS
VL: EIVLTQSPATLSLSPGERATLSCRASQSVSSYLAWYQQKPGQAPRLLIYDASNRATGIPARFSGSGSGTDFTLTISSLEPEDFAVYYCQQYFYWGWPFGQGTKLEIK
notes: as for B3
For B11, the “IC50 of inhibition of IL-17A dependent IL-6 secretion by BJ fibroblasts (1 nM IL-17A; blocks IL-17A binding to IL-17RA on the cells)” value in experiment [1] is 163 nM. In addition, the binding result in the experiment with insulin, with human IL-2, in the experiment with hTNFR2 and with BSA was “no binding (tested: 100 nM antibody)” in each case.
